Results: US20260167699A1 (Chugai, published 2026)

T1: FcγRIIa(R) (human, UniProt P12318 34-217)
T1 construct: extracellular domain; also called FcγRIIa R type; 2aR
T1 sequence: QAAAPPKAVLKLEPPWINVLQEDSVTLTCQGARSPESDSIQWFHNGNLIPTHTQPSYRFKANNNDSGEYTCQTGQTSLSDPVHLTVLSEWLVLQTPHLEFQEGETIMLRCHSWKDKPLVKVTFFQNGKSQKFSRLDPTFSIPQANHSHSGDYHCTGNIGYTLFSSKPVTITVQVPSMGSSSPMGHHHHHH

T2: FcγRIIa(H) (human, UniProt P12318 34-217)
T2 construct: extracellular domain; also called FcγRIIa H type; 2aH
T2 sequence: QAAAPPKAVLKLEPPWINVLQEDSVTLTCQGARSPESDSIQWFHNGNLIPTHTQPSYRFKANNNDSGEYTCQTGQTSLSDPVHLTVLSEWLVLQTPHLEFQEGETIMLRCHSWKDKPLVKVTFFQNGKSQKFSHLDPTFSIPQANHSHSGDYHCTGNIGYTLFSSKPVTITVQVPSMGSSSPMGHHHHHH

T3: FcγRIIb (human, UniProt P31994 43-217)
T3 construct: extracellular domain; also called 2b
T3 sequence: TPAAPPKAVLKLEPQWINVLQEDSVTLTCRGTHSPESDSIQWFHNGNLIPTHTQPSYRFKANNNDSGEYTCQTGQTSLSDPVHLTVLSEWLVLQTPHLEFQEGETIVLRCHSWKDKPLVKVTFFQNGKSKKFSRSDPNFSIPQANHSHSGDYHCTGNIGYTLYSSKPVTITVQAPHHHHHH


Experiments:
Assay in all cases: SPR (Biacore), binding relative to GpH7-A5/GpH7-B3/GpL16-k0 x100;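 note: surface plasmon resonance at 25 °C, antibody captured on a sensor chip and soluble FcγR flowed over it in HBS-EP+ running buffer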
FcγRIa = molecular target: T4, FcγRIa (human, UniProt P12314 16-292)
T4 construct: extracellular domain; also called 1a
T4 sequence (P12314 other isoform, or with tags, fused parts or gaps): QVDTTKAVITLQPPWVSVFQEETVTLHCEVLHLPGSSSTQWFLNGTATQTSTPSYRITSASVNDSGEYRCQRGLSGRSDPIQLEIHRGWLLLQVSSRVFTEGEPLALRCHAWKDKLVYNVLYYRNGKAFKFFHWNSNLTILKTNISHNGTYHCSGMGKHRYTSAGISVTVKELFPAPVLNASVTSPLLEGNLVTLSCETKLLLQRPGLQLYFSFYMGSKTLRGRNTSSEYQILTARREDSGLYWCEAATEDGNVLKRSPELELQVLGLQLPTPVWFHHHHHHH

FcγRIIa(R) = molecular target: T1, FcγRIIa(R)
FcγRIIa(H) = molecular target: T2, FcγRIIa(H)
FcγRIIb = molecular target: T3, FcγRIIb

| Binder | He/Con 1a (FcγRIa) [%] | He/Con 2aR (FcγRIIa(R)) [%] | He/Con 2aH (FcγRIIa(H)) [%] | He/Con 2b (FcγRIIb) [%] |
| --- | --- | --- | --- | --- |
| GpH7-A5/GpH7-B3 variant P271_04F/GpL16-k0 (antibody, human IgG1, kappa, heterodimerized IgG1, one H chain mutated; also called He Ab) heavy 1: not shown heavy 2: not shown light: DIVMTQSPLSLPVTPGEPASISCQASESLVHSNRNTYLHWYLQKPGQSPQLLIYKVSNRFSGVPDRFSGSGSGTDFTLKISRVEAEDVGVYYCSQNTHVPPTFGQGTKVEIERTVAAPSVFIFPPSDEQLKSGTASVVCLLNNFYPREAKVQWKVDNALQSGNSQESVTEQDSKDSTYSLSSTLTLSKADYEKHKVYACEVTHQGLSSPVTKSFNRGEC | 100 | 75.2 | 77.1 | 66.7 |
| GpH7-A5/GpH7-B3 variant S239_08L/GpL16-k0 (antibody, human IgG1, kappa, heterodimerized IgG1, one H chain mutated; also called He Ab) heavy 1: not shown heavy 2: not shown light: DIVMTQSPLSLPVTPGEPASISCQASESLVHSNRNTYLHWYLQKPGQSPQLLIYKVSNRFSGVPDRFSGSGSGTDFTLKISRVEAEDVGVYYCSQNTHVPPTFGQGTKVEIERTVAAPSVFIFPPSDEQLKSGTASVVCLLNNFYPREAKVQWKVDNALQSGNSQESVTEQDSKDSTYSLSSTLTLSKADYEKHKVYACEVTHQGLSSPVTKSFNRGEC | 103 | 114 | 101 | 142 |
| GpH7-A5/GpH7-B3 variant S239_18N/GpL16-k0 (antibody, human IgG1, kappa, heterodimerized IgG1, one H chain mutated; also called He Ab) heavy 1: not shown heavy 2: not shown light: DIVMTQSPLSLPVTPGEPASISCQASESLVHSNRNTYLHWYLQKPGQSPQLLIYKVSNRFSGVPDRFSGSGSGTDFTLKISRVEAEDVGVYYCSQNTHVPPTFGQGTKVEIERTVAAPSVFIFPPSDEQLKSGTASVVCLLNNFYPREAKVQWKVDNALQSGNSQESVTEQDSKDSTYSLSSTLTLSKADYEKHKVYACEVTHQGLSSPVTKSFNRGEC | 104 | 104 | 91.1 | 121 |
| GpH7-A5/GpH7-B3 variant S239_03V/GpL16-k0 (antibody, human IgG1, kappa, heterodimerized IgG1, one H chain mutated; also called He Ab) heavy 1: not shown heavy 2: not shown light: DIVMTQSPLSLPVTPGEPASISCQASESLVHSNRNTYLHWYLQKPGQSPQLLIYKVSNRFSGVPDRFSGSGSGTDFTLKISRVEAEDVGVYYCSQNTHVPPTFGQGTKVEIERTVAAPSVFIFPPSDEQLKSGTASVVCLLNNFYPREAKVQWKVDNALQSGNSQESVTEQDSKDSTYSLSSTLTLSKADYEKHKVYACEVTHQGLSSPVTKSFNRGEC | 98.9 | 94.1 | 88 | 110 |
| GpH7-A5/GpH7-B3 variant P271_16H/GpL16-k0 (antibody, human IgG1, kappa, heterodimerized IgG1, one H chain mutated; also called He Ab) heavy 1: not shown heavy 2: not shown light: DIVMTQSPLSLPVTPGEPASISCQASESLVHSNRNTYLHWYLQKPGQSPQLLIYKVSNRFSGVPDRFSGSGSGTDFTLKISRVEAEDVGVYYCSQNTHVPPTFGQGTKVEIERTVAAPSVFIFPPSDEQLKSGTASVVCLLNNFYPREAKVQWKVDNALQSGNSQESVTEQDSKDSTYSLSSTLTLSKADYEKHKVYACEVTHQGLSSPVTKSFNRGEC | 100 | 79 | 76.4 | 76.2 |
| GpH7-A5/GpH7-B3 variant S239_02A/GpL16-k0 (antibody, human IgG1, kappa, heterodimerized IgG1, one H chain mutated; also called He Ab) heavy 1: not shown heavy 2: not shown light: DIVMTQSPLSLPVTPGEPASISCQASESLVHSNRNTYLHWYLQKPGQSPQLLIYKVSNRFSGVPDRFSGSGSGTDFTLKISRVEAEDVGVYYCSQNTHVPPTFGQGTKVEIERTVAAPSVFIFPPSDEQLKSGTASVVCLLNNFYPREAKVQWKVDNALQSGNSQESVTEQDSKDSTYSLSSTLTLSKADYEKHKVYACEVTHQGLSSPVTKSFNRGEC | 103 | 89.8 | 89.9 | 91.6 |
| GpH7-A5/GpH7-B3 variant P271_15Y/GpL16-k0 (antibody, human IgG1, kappa, heterodimerized IgG1, one H chain mutated; also called He Ab) heavy 1: not shown heavy 2: not shown light: DIVMTQSPLSLPVTPGEPASISCQASESLVHSNRNTYLHWYLQKPGQSPQLLIYKVSNRFSGVPDRFSGSGSGTDFTLKISRVEAEDVGVYYCSQNTHVPPTFGQGTKVEIERTVAAPSVFIFPPSDEQLKSGTASVVCLLNNFYPREAKVQWKVDNALQSGNSQESVTEQDSKDSTYSLSSTLTLSKADYEKHKVYACEVTHQGLSSPVTKSFNRGEC | 101 | 70 | 74 | 58.6 |
| GpH7-A5/GpH7-B3 variant P271_14T/GpL16-k0 (antibody, human IgG1, kappa, heterodimerized IgG1, one H chain mutated; also called He Ab) heavy 1: not shown heavy 2: not shown light: DIVMTQSPLSLPVTPGEPASISCQASESLVHSNRNTYLHWYLQKPGQSPQLLIYKVSNRFSGVPDRFSGSGSGTDFTLKISRVEAEDVGVYYCSQNTHVPPTFGQGTKVEIERTVAAPSVFIFPPSDEQLKSGTASVVCLLNNFYPREAKVQWKVDNALQSGNSQESVTEQDSKDSTYSLSSTLTLSKADYEKHKVYACEVTHQGLSSPVTKSFNRGEC | 101 | 94.7 | 69.8 | 107 |

Continued, values first:

| He/Con 1a (FcγRIa) [%] | He/Con 2aR (FcγRIIa(R)) [%] | He/Con 2aH (FcγRIIa(H)) [%] | He/Con 2b (FcγRIIb) [%] | Binder |
| --- | --- | --- | --- | --- |
| 102 | 94.7 | 95.4 | 102 | GpH7-A5/GpH7-B3 variant S239_06M/GpL16-k0 (antibody, human IgG1, kappa, heterodimerized IgG1, one H chain mutated; also called He Ab) heavy 1: not shown heavy 2: not shown light: DIVMTQSPLSLPVTPGEPASISCQASESLVHSNRNTYLHWYLQKPGQSPQLLIYKVSNRFSGVPDRFSGSGSGTDFTLKISRVEAEDVGVYYCSQNTHVPPTFGQGTKVEIERTVAAPSVFIFPPSDEQLKSGTASVVCLLNNFYPREAKVQWKVDNALQSGNSQESVTEQDSKDSTYSLSSTLTLSKADYEKHKVYACEVTHQGLSSPVTKSFNRGEC |
| 99.9 | 121 | 72.1 | 110 | GpH7-A5/GpH7-B3 variant S267_01G/GpL16-k0 (antibody, human IgG1, kappa, heterodimerized IgG1, one H chain mutated; also called He Ab) heavy 1: not shown heavy 2: not shown light: DIVMTQSPLSLPVTPGEPASISCQASESLVHSNRNTYLHWYLQKPGQSPQLLIYKVSNRFSGVPDRFSGSGSGTDFTLKISRVEAEDVGVYYCSQNTHVPPTFGQGTKVEIERTVAAPSVFIFPPSDEQLKSGTASVVCLLNNFYPREAKVQWKVDNALQSGNSQESVTEQDSKDSTYSLSSTLTLSKADYEKHKVYACEVTHQGLSSPVTKSFNRGEC |
| 104 | 79.8 | 80 | 87.3 | GpH7-A5/GpH7-B3 variant S239_19Q/GpL16-k0 (antibody, human IgG1, kappa, heterodimerized IgG1, one H chain mutated; also called He Ab) heavy 1: not shown heavy 2: not shown light: DIVMTQSPLSLPVTPGEPASISCQASESLVHSNRNTYLHWYLQKPGQSPQLLIYKVSNRFSGVPDRFSGSGSGTDFTLKISRVEAEDVGVYYCSQNTHVPPTFGQGTKVEIERTVAAPSVFIFPPSDEQLKSGTASVVCLLNNFYPREAKVQWKVDNALQSGNSQESVTEQDSKDSTYSLSSTLTLSKADYEKHKVYACEVTHQGLSSPVTKSFNRGEC |
| 101 | 95.9 | 88.5 | 108 | GpH7-A5/GpH7-B3 variant S239_07I/GpL16-k0 (antibody, human IgG1, kappa, heterodimerized IgG1, one H chain mutated; also called He Ab) heavy 1: not shown heavy 2: not shown light: DIVMTQSPLSLPVTPGEPASISCQASESLVHSNRNTYLHWYLQKPGQSPQLLIYKVSNRFSGVPDRFSGSGSGTDFTLKISRVEAEDVGVYYCSQNTHVPPTFGQGTKVEIERTVAAPSVFIFPPSDEQLKSGTASVVCLLNNFYPREAKVQWKVDNALQSGNSQESVTEQDSKDSTYSLSSTLTLSKADYEKHKVYACEVTHQGLSSPVTKSFNRGEC |
| 104 | 129 | 111 | 209 | GpH7-A5/GpH7-B3 variant S239_09D/GpL16-k0 (antibody, human IgG1, kappa, heterodimerized IgG1, one H chain mutated; also called He Ab) heavy 1: not shown heavy 2: not shown light: DIVMTQSPLSLPVTPGEPASISCQASESLVHSNRNTYLHWYLQKPGQSPQLLIYKVSNRFSGVPDRFSGSGSGTDFTLKISRVEAEDVGVYYCSQNTHVPPTFGQGTKVEIERTVAAPSVFIFPPSDEQLKSGTASVVCLLNNFYPREAKVQWKVDNALQSGNSQESVTEQDSKDSTYSLSSTLTLSKADYEKHKVYACEVTHQGLSSPVTKSFNRGEC |
| 104 | 120 | 93.8 | 146 | GpH7-A5/GpH7-B3 variant S239_01G/GpL16-k0 (antibody, human IgG1, kappa, heterodimerized IgG1, one H chain mutated; also called He Ab) heavy 1: not shown heavy 2: not shown light: DIVMTQSPLSLPVTPGEPASISCQASESLVHSNRNTYLHWYLQKPGQSPQLLIYKVSNRFSGVPDRFSGSGSGTDFTLKISRVEAEDVGVYYCSQNTHVPPTFGQGTKVEIERTVAAPSVFIFPPSDEQLKSGTASVVCLLNNFYPREAKVQWKVDNALQSGNSQESVTEQDSKDSTYSLSSTLTLSKADYEKHKVYACEVTHQGLSSPVTKSFNRGEC |
| 104 | 97.4 | 95.9 | 98.6 | GpH7-A5/GpH7-B3 variant S239_14T/GpL16-k0 (antibody, human IgG1, kappa, heterodimerized IgG1, one H chain mutated; also called He Ab) heavy 1: not shown heavy 2: not shown light: DIVMTQSPLSLPVTPGEPASISCQASESLVHSNRNTYLHWYLQKPGQSPQLLIYKVSNRFSGVPDRFSGSGSGTDFTLKISRVEAEDVGVYYCSQNTHVPPTFGQGTKVEIERTVAAPSVFIFPPSDEQLKSGTASVVCLLNNFYPREAKVQWKVDNALQSGNSQESVTEQDSKDSTYSLSSTLTLSKADYEKHKVYACEVTHQGLSSPVTKSFNRGEC |
| 108 | 127 | 108 | 183 | GpH7-A5/GpH7-B3 variant S239_10E/GpL16-k0 (antibody, human IgG1, kappa, heterodimerized IgG1, one H chain mutated; also called He Ab) heavy 1: not shown heavy 2: not shown light: DIVMTQSPLSLPVTPGEPASISCQASESLVHSNRNTYLHWYLQKPGQSPQLLIYKVSNRFSGVPDRFSGSGSGTDFTLKISRVEAEDVGVYYCSQNTHVPPTFGQGTKVEIERTVAAPSVFIFPPSDEQLKSGTASVVCLLNNFYPREAKVQWKVDNALQSGNSQESVTEQDSKDSTYSLSSTLTLSKADYEKHKVYACEVTHQGLSSPVTKSFNRGEC |
